Source: PMC7550718

Columns and labels:
[1] = target: Full length wild type SHP1 (human) (UniProt P29350)
SHP1 R30Q (human) = SHP1 R30Q (human) (UniProt P29350)
SHP1 R30Q R136Q (human) = SHP1 R30Q R136Q (human) (UniProt P29350)
SHP1 R136Q (human) = SHP1 R136Q (human) (UniProt P29350)

- increase of SHP1 phosphatase activity on DiFMUP with 0 to 3,000 nM SIRPα peptide (fold) [1]: 35 fold
- increase of phosphatase activity on DiFMUP with 0 to 3,000 nM SIRPα peptide (fold at 3 μM) (SHP1 R30Q (human)): 1.8 fold
- increase of phosphatase activity on DiFMUP with 0 to 3,000 nM SIRPα peptide (fold at 3 μM) (SHP1 R30Q R136Q (human)): 1.1 fold
- increase of phosphatase activity on DiFMUP with 0 to 3,000 nM SIRPα peptide (fold at 3 μM) (SHP1 R136Q (human)): 3.5 fold
Substance: SIRPα di-phosphopeptide corresponding to residues 427 to 460 of human SIRPα (H2N-ITpYADLNLP-PEG8-HTEpYASIQTSK-NH2)
